This series can be described thus: soluble on expression in E. coli; label from the status in PepcDB or PDB records.
As to “GWSFEEQFKQVRQLYEINDDPKRKEFLDDLFSFMQKRGTPINRLPIMAKSVLDLYELYNLVIARGGLVDVINKKLWQEIIKGLHLPSSITSAAFTLRTQYMKYLYPYECEKKNLSTPAELQAAIDGNR”, the “soluble on expression in E. coli” value is listed as “soluble”. To “HHHHHHENLYFQGSMDALQLANSAFAVDLFKQLSEKEPLGNVLFSPIALSTSLSLAQVGAKGDTANEIGQVLHFENVKDVPFGFQTVTSDVNKLSSFYSLKLIKRLYVDKSLNLSTEFISSTKRPYAKELETVDFKDKLEETKGQINNSIKDLTDGHFENILADNSVNDQTKILVVNAAYFVGKWMKKFSESETKESPFRVNKTDTKPVQMMNMEATFSMGNIDSINSKIIELPFQNKHLSMFILLPKDVEDESTGLEKIEKQLNSESLSQWTNPSTMANAKVKLSIPKFKVEKMIDPKASLENLGLKHIFSEDTSDFSGMSETKGVALSNVIHKVSLEITEDGGDSIEVPGARILQHKDELNADHPFIYIIRHNKTRNIIFFGKFSSP” belongs “soluble”; to “HHHHHHESDDDDKLAFGAIQLDGDGNILQYNAAEGDITGRDPKQVIGKNFFKDVAPCTDSPEFYGKFKEGVASGNLNTMFEYTFDYQMTPTKVKVHMKKALSGDSYWVFVKRV”, “soluble”. In the case of “HHHHHHSSGLVPRGSHMMNPFHDLEPGPNVPEVVYALIEIPKGSRNKYELDKETGLLKLDRVLYTPFHYPVDYGIIPRTWYEDGDPFDIMVIMREPTYPLTIIEARPIGLFKMIDSGDKDYKVLAVPVEDPYFKDWKDISDVPKAFLDEIAHFFKRYKELEGKEIIVEGWEGAEAAKREILRAIEMYKEKFGKKE”, the “soluble on expression in E. coli” value was “soluble”. The same measure for “HLDAIQNFGAMDILCTDKTGTLTQDKIVLENHTDVSGKVCERVLHAAWLNSHYQTGLKNLLDTAVLEGVELDAARGLAERWQKVDEIPFDFERRRMSVVVKEDDAAHQLICKGALQEILNVSTQVRYNGDIVPLDDTMLRRIRRVTDTLNRQGLRVVAVATKYLPAREGDYQRADESDLILEGYIAFLDP”: “not soluble”; for “HLQGLSAAVLDLTGLAQKGGTVVSHIRLAPSGTANGPVRLDWQQADAAILCDPVAAVAPDSLGALRRDHTRTTVNTYVAPVSDFTRNPDAPLRADALLAKIRHAAGEHVAALDAHAAAQALFGDSILSNMFMLGHAWQRGDVPLALAALARAIELNGVAVAANRAAFDAGRLAAHE”: “not soluble”.

Consider “HMIFAKGHGTQNDFVLLPDVDAELVLTAARVAALCDRRKGLGADGVLRVTTAGAAQAVGVLDSLPEGVRVTDWYMDYRNADGSAAQMCGNGVRVFAHYLRASGLEVRDEFVVGSLAGPRPVTCHHVEAAYADVSVDMGKANRLGAGEAVVGGRRFHGLAVDVGNPHLACVDSQLTVDGLAALDVGAPVSFDGAQFPDGVNVEVLTAPVDGAVWMRVHERGVGETRSCGTGTVAAAVAALAAVGSPTGTLTVHVPGGEVVVTVTDATSFLRGPSVLVARGDLADDWWNAMG”, for which the “soluble on expression in E. coli” value was “soluble”. The same measure for “IHTMWKGTISFGLVNIPIKLHAATENKDVRLRQLHKECKTPINYLKVCPNCDAEVEPNDIVKAYEYAKNKFVELDEEELASLKKEQEDKAVEIIDFVKLQEIDPIYFDKSYYMSPGDGGGKAYTLLREALAESEKIGVAKIIIRAKEHLAVIRVYKNTLLMETIHFPDEVRAVDQVPNVPE”: “not soluble”; for “IKNFSYGVKFVLSDAQQKILKYNNPDKSLSNPYYEGQKLGEIWGYKTIGIAQSDEEMNQHLANAKQPMGQKWAAGDIMYADLDNSGSVDQGNYKVGDSGDWQIIGNNTPRFNYGITIDAAWKGLDFRAFVQGIGKRDYWLNGPYFWGFSGGGEWASAGFKEHWDFWRPEGDPLGANTNSYFARVIRGTSKNQQRQTRYLQDASYWRLKNIQIGYTLPKVWTKKAGMESVRVYVSGDNLLTVSDITGVFDPENLGTQWTDPGKVYPLQKVIAIGLTVNF”: “not soluble”; for “INKVPVTVFLWRPEKYWPADFVSENVKNFGYTVEEFTSGKVLYGNIVHPDDFERVERELSRRIEEDYVDFSQEYRILTKSGEARWVEERTFIEADENGVVKYLKGIILDIT”: “not soluble”. Take “IRSIWENNGFGLMSSKTMTDFDYWISDFEKIGASQKEAEQLIVKAIEIAIDANARNYNYINAILKDWEQRGFKSVEEREA”: the “soluble on expression in E. coli” value is recorded as “soluble”. To “ITKAINYMAKRRIGALLTIERDTGMGDYIETGIPLNAKVSSELLINIFIPNTPLHDGAVIMKNNEIAAAACYLPLSESPFISKELGTRHRAAVGISEVTDSLTIIVSEETGGVSVAKNGD” belongs “not soluble”.
